# The supplement of paper PMC9112550, “Optimization of the antimicrobial peptide Bac7 by deep mutational scanning” (BMC Biology, 2022)
# System: Escherichia coli TOP10
# Experiment: shrunken log2 fold change of peptide-encoding DNA abundance (4.5 h post-induction vs induction); higher = less antimicrobial activity (less host growth inhibition)
# Details: time post-induction: 4.5 h; library: site-saturation at positions 5, 18, 19, 20
# 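Also: peptides expressed intracellularly from a pBAD plasmid library in pooled LB shake-flask culture, induced with 0.3% L-arabinose, DNA abundance read by NGS, three biological replicates, DESeq2 with apeglm shrinkage.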
row,Sequence,shrunken log2 fold change
1,RRIRTRPPRLPRPRPRPAWIPRP,-0.27
2,RRIRERPPRLPRPRPRPYICPRP,-0.486
3,RRIRNRPPRLPRPRPRPDMLPRP,-0.116
4,RRIRHRPPRLPRPRPRPLHFPRP,-0.0265
5,RRIRHRPPRLPRPRPRPYYTPRP,-0.0493
6,RRIRPRPPRLPRPRPRPSSIPRP,-0.824
7,RRIRHRPPRLPRPRPRPPLGPRP,0.25
8,RRIRERPPRLPRPRPRPFDQPRP,-0.0377
9,RRIRLRPPRLPRPRPRPWGNPRP,-0.106
10,RRIRERPPRLPRPRPRPDIDPRP,-0.191
11,RRIRSRPPRLPRPRPRPGSAPRP,0.231
12,RRIRARPPRLPRPRPRPLRQPRP,0.736
13,RRIRIRPPRLPRPRPRPNITPRP,-0.726
14,RRIRPRPPRLPRPRPRPSNPPRP,-0.0794
15,RRIRGRPPRLPRPRPRPTIEPRP,0.673
16,RRIRWRPPRLPRPRPRPKCDPRP,0.033
17,RRIRFRPPRLPRPRPRPEWQPRP,-0.00149
18,RRIRLRPPRLPRPRPRPWHIPRP,0.0292
19,RRIRDRPPRLPRPRPRPKTCPRP,0.00179
20,RRIRMRPPRLPRPRPRPYQFPRP,-0.125
21,RRIRCRPPRLPRPRPRPMVKPRP,-0.228
22,RRIRNRPPRLPRPRPRPNNHPRP,-0.741
23,RRIRERPPRLPRPRPRPSDFPRP,-0.149
24,RRIRSRPPRLPRPRPRPTFPPRP,0.0566
25,RRIRYRPPRLPRPRPRPFCKPRP,-1.59

row,Sequence,shrunken log2 fold change
1,RRIRRRPPRLPRPRPRPPQQPRP,0.951
2,RRIRPRPPRLPRPRPRPLERPRP,0.277
3,RRIRPRPPRLPRPRPRPILEPRP,-0.132
4,RRIRQRPPRLPRPRPRPIKLPRP,-0.0569
5,RRIRDRPPRLPRPRPRPYFTPRP,-0.573
6,RRIRMRPPRLPRPRPRPHISPRP,-0.0571
7,RRIRNRPPRLPRPRPRPGDKPRP,-0.105
8,RRIRYRPPRLPRPRPRPPQSPRP,-0.118
9,RRIRWRPPRLPRPRPRPSLKPRP,0.0451
10,RRIRCRPPRLPRPRPRPACDPRP,0.389
11,RRIRVRPPRLPRPRPRPSRSPRP,0.0405
12,RRIRLRPPRLPRPRPRPVPMPRP,-0.0969
13,RRIRGRPPRLPRPRPRPVWQPRP,0.174
14,RRIRQRPPRLPRPRPRPRGGPRP,0.484
15,RRIRERPPRLPRPRPRPHWHPRP,-0.298
16,RRIRDRPPRLPRPRPRPCQGPRP,0.028
17,RRIRNRPPRLPRPRPRPHWDPRP,-0.136
18,RRIRNRPPRLPRPRPRPTNRPRP,-0.00917
19,RRIRDRPPRLPRPRPRPIHGPRP,-0.0134
20,RRIRYRPPRLPRPRPRPPGGPRP,0.259
21,RRIRFRPPRLPRPRPRPWGAPRP,0.0596
22,RRIRIRPPRLPRPRPRPAEDPRP,-0.0521
23,RRIRKRPPRLPRPRPRPEMGPRP,0.502
24,RRIRKRPPRLPRPRPRPFPDPRP,-0.112
25,RRIRRRPPRLPRPRPRPFCAPRP,0.488

row,Sequence,shrunken log2 fold change
1,RRIRERPPRLPRPRPRPRCDPRP,-0.044
2,RRIRTRPPRLPRPRPRPQPKPRP,0.151
3,RRIRPRPPRLPRPRPRPPSWPRP,0.54
4,RRIRARPPRLPRPRPRPYWLPRP,-0.148
5,RRIRRRPPRLPRPRPRPKAHPRP,0.515
6,RRIRCRPPRLPRPRPRPSSVPRP,-0.548
7,RRIRCRPPRLPRPRPRPTQNPRP,0.803
8,RRIRQRPPRLPRPRPRPSEMPRP,0.0648
9,RRIRTRPPRLPRPRPRPSCMPRP,-0.0847
10,RRIRYRPPRLPRPRPRPPFCPRP,-0.332
11,RRIRQRPPRLPRPRPRPYYIPRP,-0.657
12,RRIRSRPPRLPRPRPRPNSGPRP,0.0845
13,RRIRDRPPRLPRPRPRPYIPPRP,-0.456
14,RRIRVRPPRLPRPRPRPVATPRP,0.212
15,RRIRIRPPRLPRPRPRPFYFPRP,-0.448
16,RRIRMRPPRLPRPRPRPFKAPRP,-0.114
17,RRIRYRPPRLPRPRPRPSVNPRP,-0.177
18,RRIRIRPPRLPRPRPRPFIWPRP,-0.242
19,RRIRHRPPRLPRPRPRPFRDPRP,0.0888
20,RRIRVRPPRLPRPRPRPFHCPRP,-0.13
21,RRIRYRPPRLPRPRPRPAPPPRP,0.417
22,RRIRRRPPRLPRPRPRPSNVPRP,0.27
23,RRIRYRPPRLPRPRPRPVQEPRP,-0.149
24,RRIRMRPPRLPRPRPRPQQCPRP,0.143
25,RRIRVRPPRLPRPRPRPKIAPRP,0.0892
